Residue numbers refer to the chain shown, from its start.
T1: RAPGEF6, Q8TEU7
T1 sequence (Q8TEU7 525-625, limits assumed, looked up): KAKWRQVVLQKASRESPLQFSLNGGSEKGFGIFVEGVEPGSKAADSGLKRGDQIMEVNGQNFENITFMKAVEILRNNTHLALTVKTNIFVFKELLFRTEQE

T2: LIN7A, O14910
T2 sequence (O14910 103-200, limits assumed, looked up): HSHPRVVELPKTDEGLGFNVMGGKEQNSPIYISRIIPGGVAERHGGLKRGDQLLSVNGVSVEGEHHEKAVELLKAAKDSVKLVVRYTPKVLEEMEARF

T3: GRIP1_7, Q9Y3R0
T3 sequence (Q9Y3R0 999-1096, limits assumed, looked up): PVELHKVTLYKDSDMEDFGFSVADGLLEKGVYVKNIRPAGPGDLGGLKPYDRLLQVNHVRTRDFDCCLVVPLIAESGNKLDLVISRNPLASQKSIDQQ

T4: GRIP1_4, Q9Y3R0
T4 sequence (Q9Y3R0 467-571, limits assumed, looked up): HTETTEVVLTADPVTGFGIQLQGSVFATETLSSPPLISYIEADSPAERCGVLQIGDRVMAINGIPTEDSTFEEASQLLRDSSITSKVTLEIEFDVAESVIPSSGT

T5: LIN7C, Q9NUP9
T5 sequence (Q9NUP9 88-185, limits assumed, looked up): T2 sequence (O14910 103-200, limits assumed, looked up) with D13E, V20I, V40I, E42D, K77Q, D78G, S79K, A96S

T6: SNTG1, Q9NSN8
T6 sequence (Q9NSN8 52-150, limits assumed, looked up): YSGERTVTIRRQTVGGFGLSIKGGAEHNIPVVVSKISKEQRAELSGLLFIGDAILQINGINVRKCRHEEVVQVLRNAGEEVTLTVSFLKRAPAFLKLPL

T7: PTPN13_1, Q12923
T7 sequence (Q12923 1088-1188, limits assumed, looked up): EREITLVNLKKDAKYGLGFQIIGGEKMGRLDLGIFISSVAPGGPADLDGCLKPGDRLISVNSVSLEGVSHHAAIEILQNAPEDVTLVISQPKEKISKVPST

T8: MPDZ_5, O75970
T8 sequence (O75970 695-796, limits assumed, looked up): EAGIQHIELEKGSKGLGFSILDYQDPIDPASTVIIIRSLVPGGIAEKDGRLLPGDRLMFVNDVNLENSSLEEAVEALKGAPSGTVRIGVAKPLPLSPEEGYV

T9: PDZD2_2, O15018
T9 sequence (O15018 329-429, limits assumed, looked up): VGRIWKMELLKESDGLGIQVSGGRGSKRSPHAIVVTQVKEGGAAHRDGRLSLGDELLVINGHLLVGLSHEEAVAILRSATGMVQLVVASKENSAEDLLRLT

T10: SYNJ2BP, P57105
T10 sequence (P57105 8-110, limits assumed, looked up): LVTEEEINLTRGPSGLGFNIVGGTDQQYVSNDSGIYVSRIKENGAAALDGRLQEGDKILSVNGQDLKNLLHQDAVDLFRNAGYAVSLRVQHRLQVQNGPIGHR

T11: SNTB1, Q13884
T11 sequence (Q13884 107-205, limits assumed, looked up): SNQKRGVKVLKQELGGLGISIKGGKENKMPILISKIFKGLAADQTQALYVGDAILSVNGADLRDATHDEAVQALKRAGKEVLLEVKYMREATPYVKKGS

T12: NHERF3_3, Q5T2W1
T12 sequence (Q5T2W1 238-333, limits assumed, looked up): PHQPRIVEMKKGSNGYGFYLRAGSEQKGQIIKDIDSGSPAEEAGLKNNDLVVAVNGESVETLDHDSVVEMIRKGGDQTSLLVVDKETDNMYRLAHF

T13: DFNB31_3, Q9P202
T13 sequence (Q9P202 811-907, limits assumed, looked up): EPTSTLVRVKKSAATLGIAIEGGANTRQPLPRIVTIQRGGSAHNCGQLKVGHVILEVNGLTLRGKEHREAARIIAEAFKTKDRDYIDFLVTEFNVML


biological target: T1, RAPGEF6, Q8TEU7; assay: holdup assay; set-up: key: below the threshold = too weak to quantify, mostly under pKd 3.1 to 4; details: plain residues with an end cap or a label only (N-terminal biotin on a linker: ado-ado)

Binder	pKd
QYPGSPDSWV [PKP4, Q99569]	below the threshold
DFRHKSSFVI [JAM3, Q9BX67]	below the threshold
LGHTPFVDEL [UQCRC2, P22695]	below the threshold

biological target: T2, LIN7A, O14910; assay: holdup assay; set-up: key: below the threshold = too weak to quantify, mostly under pKd 3.1 to 4; details: plain residues with an end cap or a label only (N-terminal biotin on a linker: ado-ado)

Binder	pKd
QYPGSPDSWV [PKP4, Q99569]	below the threshold
DFRHKSSFVI [JAM3, Q9BX67]	below the threshold
LGHTPFVDEL [UQCRC2, P22695]	3.53

biological target: FRMPD3, Q5JV73; assay: holdup assay; set-up: key: below the threshold = too weak to quantify, mostly under pKd 3.1 to 4; details: plain residues with an end cap or a label only (N-terminal biotin on a linker: ado-ado)
Sequence (Q5JV73 12-100): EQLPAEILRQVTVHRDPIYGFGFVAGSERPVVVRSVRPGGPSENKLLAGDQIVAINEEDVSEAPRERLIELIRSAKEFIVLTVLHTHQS

Binder	pKd
QYPGSPDSWV [PKP4, Q99569]	3.47
DFRHKSSFVI [JAM3, Q9BX67]	below the threshold
LGHTPFVDEL [UQCRC2, P22695]	below the threshold

biological target: T3, GRIP1_7, Q9Y3R0; assay: holdup assay; set-up: key: below the threshold = too weak to quantify, mostly under pKd 3.1 to 4; details: plain residues with an end cap or a label only (N-terminal biotin on a linker: ado-ado)

Binder	pKd
QYPGSPDSWV [PKP4, Q99569]	3.7
DFRHKSSFVI [JAM3, Q9BX67]	below the threshold
LGHTPFVDEL [UQCRC2, P22695]	below the threshold

biological target: GORASP2, Q9H8Y8; assay: holdup assay; set-up: key: below the threshold = too weak to quantify, mostly under pKd 3.1 to 4; details: plain residues with an end cap or a label only (N-terminal biotin on a linker: ado-ado)

Binder	pKd
QYPGSPDSWV [PKP4, Q99569]	4.39
DFRHKSSFVI [JAM3, Q9BX67]	5.21
LGHTPFVDEL [UQCRC2, P22695]	below the threshold

biological target: T4, GRIP1_4, Q9Y3R0; assay: holdup assay; set-up: key: below the threshold = too weak to quantify, mostly under pKd 3.1 to 4; details: plain residues with an end cap or a label only (N-terminal biotin on a linker: ado-ado)

Binder	pKd
QYPGSPDSWV [PKP4, Q99569]	below the threshold
DFRHKSSFVI [JAM3, Q9BX67]	below the threshold
LGHTPFVDEL [UQCRC2, P22695]	below the threshold

biological target: T5, LIN7C, Q9NUP9; assay: holdup assay; set-up: key: below the threshold = too weak to quantify, mostly under pKd 3.1 to 4; details: plain residues with an end cap or a label only (N-terminal biotin on a linker: ado-ado)

Binder	pKd
QYPGSPDSWV [PKP4, Q99569]	3.94
DFRHKSSFVI [JAM3, Q9BX67]	3.93
LGHTPFVDEL [UQCRC2, P22695]	below the threshold

biological target: T6, SNTG1, Q9NSN8; assay: holdup assay; set-up: key: below the threshold = too weak to quantify, mostly under pKd 3.1 to 4; details: plain residues with an end cap or a label only (N-terminal biotin on a linker: ado-ado)

Binder	pKd
QYPGSPDSWV [PKP4, Q99569]	4.57
DFRHKSSFVI [JAM3, Q9BX67]	below the threshold
LGHTPFVDEL [UQCRC2, P22695]	below the threshold

biological target: T7, PTPN13_1, Q12923; assay: holdup assay; set-up: key: below the threshold = too weak to quantify, mostly under pKd 3.1 to 4; details: plain residues with an end cap or a label only (N-terminal biotin on a linker: ado-ado)

Binder	pKd
QYPGSPDSWV [PKP4, Q99569]	below the threshold
DFRHKSSFVI [JAM3, Q9BX67]	below the threshold
LGHTPFVDEL [UQCRC2, P22695]	below the threshold

biological target: T8, MPDZ_5, O75970; assay: holdup assay; set-up: key: below the threshold = too weak to quantify, mostly under pKd 3.1 to 4; details: plain residues with an end cap or a label only (N-terminal biotin on a linker: ado-ado)

Binder	pKd
QYPGSPDSWV [PKP4, Q99569]	3.58
DFRHKSSFVI [JAM3, Q9BX67]	below the threshold
LGHTPFVDEL [UQCRC2, P22695]	below the threshold

biological target: GRID2IP_1, A4D2P6; assay: holdup assay; set-up: key: below the threshold = too weak to quantify, mostly under pKd 3.1 to 4; details: plain residues with an end cap or a label only (N-terminal biotin on a linker: ado-ado)
Sequence (A4D2P6 1-87): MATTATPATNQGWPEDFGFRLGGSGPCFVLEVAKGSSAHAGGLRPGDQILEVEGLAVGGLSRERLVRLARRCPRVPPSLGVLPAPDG

Binder	pKd
QYPGSPDSWV [PKP4, Q99569]	below the threshold
DFRHKSSFVI [JAM3, Q9BX67]	below the threshold
LGHTPFVDEL [UQCRC2, P22695]	below the threshold

biological target: Inadl_5, Q8NI35; assay: holdup assay; set-up: key: below the threshold = too weak to quantify, mostly under pKd 3.1 to 4; details: plain residues with an end cap or a label only (N-terminal biotin on a linker: ado-ado)
Sequence (Q8NI35 673-780): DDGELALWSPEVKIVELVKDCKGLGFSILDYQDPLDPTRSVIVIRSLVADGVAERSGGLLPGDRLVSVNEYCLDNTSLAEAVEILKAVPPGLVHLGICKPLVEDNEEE

Binder	pKd
QYPGSPDSWV [PKP4, Q99569]	3.87
DFRHKSSFVI [JAM3, Q9BX67]	below the threshold
LGHTPFVDEL [UQCRC2, P22695]	below the threshold

biological target: T9, PDZD2_2, O15018; assay: holdup assay; set-up: key: below the threshold = too weak to quantify, mostly under pKd 3.1 to 4; details: plain residues with an end cap or a label only (N-terminal biotin on a linker: ado-ado)

Binder	pKd
QYPGSPDSWV [PKP4, Q99569]	6.06
DFRHKSSFVI [JAM3, Q9BX67]	below the threshold
LGHTPFVDEL [UQCRC2, P22695]	below the threshold

biological target: T10, SYNJ2BP, P57105; assay: holdup assay; set-up: key: below the threshold = too weak to quantify, mostly under pKd 3.1 to 4; details: plain residues with an end cap or a label only (N-terminal biotin on a linker: ado-ado)

Binder	pKd
QYPGSPDSWV [PKP4, Q99569]	4.94
DFRHKSSFVI [JAM3, Q9BX67]	below the threshold
LGHTPFVDEL [UQCRC2, P22695]	4

biological target: T11, SNTB1, Q13884; assay: holdup assay; set-up: key: below the threshold = too weak to quantify, mostly under pKd 3.1 to 4; details: plain residues with an end cap or a label only (N-terminal biotin on a linker: ado-ado)

Binder	pKd
QYPGSPDSWV [PKP4, Q99569]	4.36
DFRHKSSFVI [JAM3, Q9BX67]	below the threshold
LGHTPFVDEL [UQCRC2, P22695]	below the threshold

biological target: MAST2, Q6P0Q8; assay: holdup assay; set-up: key: below the threshold = too weak to quantify, mostly under pKd 3.1 to 4; details: plain residues with an end cap or a label only (N-terminal biotin on a linker: ado-ado)
Sequence (Q6P0Q8 1099-1202): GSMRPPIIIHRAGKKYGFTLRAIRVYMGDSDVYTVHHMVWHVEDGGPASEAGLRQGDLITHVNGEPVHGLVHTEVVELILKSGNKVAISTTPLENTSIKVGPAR

Binder	pKd
QYPGSPDSWV [PKP4, Q99569]	4.09
DFRHKSSFVI [JAM3, Q9BX67]	3.76
LGHTPFVDEL [UQCRC2, P22695]	4.56

biological target: MAGI2_5, Q86UL8; assay: holdup assay; set-up: key: below the threshold = too weak to quantify, mostly under pKd 3.1 to 4; details: plain residues with an end cap or a label only (N-terminal biotin on a linker: ado-ado)
Sequence (Q86UL8 915-1017): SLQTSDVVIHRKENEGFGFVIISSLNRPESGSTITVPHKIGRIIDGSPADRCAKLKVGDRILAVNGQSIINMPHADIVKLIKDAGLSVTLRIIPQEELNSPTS

Binder	pKd
QYPGSPDSWV [PKP4, Q99569]	below the threshold
DFRHKSSFVI [JAM3, Q9BX67]	below the threshold
LGHTPFVDEL [UQCRC2, P22695]	3.47

biological target: PICK1, Q9NRD5; assay: holdup assay; set-up: key: below the threshold = too weak to quantify, mostly under pKd 3.1 to 4; details: plain residues with an end cap or a label only (N-terminal biotin on a linker: ado-ado)
Sequence (Q9NRD5 17-115): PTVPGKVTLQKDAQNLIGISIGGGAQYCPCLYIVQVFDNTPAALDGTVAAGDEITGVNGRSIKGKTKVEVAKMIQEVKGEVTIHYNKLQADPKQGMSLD

Binder	pKd
QYPGSPDSWV [PKP4, Q99569]	below the threshold
DFRHKSSFVI [JAM3, Q9BX67]	below the threshold
LGHTPFVDEL [UQCRC2, P22695]	4.09

biological target: AHNAK1, Q09666; assay: holdup assay; set-up: key: below the threshold = too weak to quantify, mostly under pKd 3.1 to 4; details: plain residues with an end cap or a label only (N-terminal biotin on a linker: ado-ado)
Sequence (Q09666 4-100): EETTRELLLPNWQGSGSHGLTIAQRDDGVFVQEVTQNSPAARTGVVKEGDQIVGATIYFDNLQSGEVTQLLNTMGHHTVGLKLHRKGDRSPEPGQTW

Binder	pKd
QYPGSPDSWV [PKP4, Q99569]	3.51
DFRHKSSFVI [JAM3, Q9BX67]	below the threshold
LGHTPFVDEL [UQCRC2, P22695]	below the threshold

biological target: T12, NHERF3_3, Q5T2W1; assay: holdup assay; set-up: key: below the threshold = too weak to quantify, mostly under pKd 3.1 to 4; details: plain residues with an end cap or a label only (N-terminal biotin on a linker: ado-ado)

Binder	pKd
QYPGSPDSWV [PKP4, Q99569]	below the threshold
DFRHKSSFVI [JAM3, Q9BX67]	below the threshold
LGHTPFVDEL [UQCRC2, P22695]	below the threshold

biological target: FRMPD2_2, Q68DX3; assay: holdup assay; set-up: key: below the threshold = too weak to quantify, mostly under pKd 3.1 to 4; details: plain residues with an end cap or a label only (N-terminal biotin on a linker: ado-ado)
Sequence (Q68DX3 944-1038): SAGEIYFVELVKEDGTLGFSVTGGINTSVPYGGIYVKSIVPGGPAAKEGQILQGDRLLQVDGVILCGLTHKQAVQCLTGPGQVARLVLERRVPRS

Binder	pKd
QYPGSPDSWV [PKP4, Q99569]	4.34
DFRHKSSFVI [JAM3, Q9BX67]	below the threshold
LGHTPFVDEL [UQCRC2, P22695]	below the threshold

biological target: LNX1_3, Q8TBB1; assay: holdup assay; set-up: key: below the threshold = too weak to quantify, mostly under pKd 3.1 to 4; details: plain residues with an end cap or a label only (N-terminal biotin on a linker: ado-ado)
Sequence (Q8TBB1 500-596): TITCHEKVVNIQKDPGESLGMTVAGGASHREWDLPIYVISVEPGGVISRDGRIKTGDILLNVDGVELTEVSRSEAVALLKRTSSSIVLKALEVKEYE

Binder	pKd
QYPGSPDSWV [PKP4, Q99569]	below the threshold
DFRHKSSFVI [JAM3, Q9BX67]	below the threshold
LGHTPFVDEL [UQCRC2, P22695]	below the threshold

biological target: TJP1_3, Q07157; assay: holdup assay; set-up: key: below the threshold = too weak to quantify, mostly under pKd 3.1 to 4; details: plain residues with an end cap or a label only (N-terminal biotin on a linker: ado-ado)
Sequence (Q07157 416-512): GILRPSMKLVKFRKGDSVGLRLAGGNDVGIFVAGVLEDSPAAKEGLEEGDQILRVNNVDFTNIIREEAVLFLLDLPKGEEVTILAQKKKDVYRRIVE

Binder	pKd
QYPGSPDSWV [PKP4, Q99569]	3.68
DFRHKSSFVI [JAM3, Q9BX67]	below the threshold
LGHTPFVDEL [UQCRC2, P22695]	below the threshold

biological target: T13, DFNB31_3, Q9P202; assay: holdup assay; set-up: key: below the threshold = too weak to quantify, mostly under pKd 3.1 to 4; details: plain residues with an end cap or a label only (N-terminal biotin on a linker: ado-ado)

Binder	pKd
QYPGSPDSWV [PKP4, Q99569]	3.75
DFRHKSSFVI [JAM3, Q9BX67]	3.86
LGHTPFVDEL [UQCRC2, P22695]	3.82
